# Patent US20240005439A1, “IMAGING METHODS AND RADIOTRACERS FOR USE THEREIN” (VESTLANDETS INNOVASJONSSELSKAP AS (VIS), priority 2020, published 2024)
# B1: unlabelled cystatin C: Human cystatin C purchased from Nordic BioSite, unlabelled (protein, UniProt P01034 27-146, looked up)
# Cystatin-C: SSPGKPPRLVGGPMDASVEEEGVRRALDFAVGEYNKASNDMYHSRALQVVRARKQIVAGVNYFLDVELGRTTCTKTQPNLDNCPFHDQPHLKRKAFCSFQIYAVPWQGTMTLSKSTCQDA
# B2: ^124I-labelled cystatin C: Human cystatin C (Nordic BioSite) labelled with ^124I for PET by Iodo-Gen (protein, UniProt P01034 27-146, looked up)
# Cystatin-C: B1 Cystatin-C
# modifications: 124I label
# notes: Human cystatin C (Nordic BioSite) labelled with ^124I for PET by Iodo-Gen
# What was measured:
# Iohexol plasma clearance = format: in vivo, rats; settings: for GFR relative to the initial control value (iohexol): CKD rats; for clearance: rat, plasma, 105 mg
# [1] = Iohexol plasma clearance in mice; format: in vivo; settings: mouse, intravenous, 100 μl (iohexol diluted 1:10 from stock solution), male C3H mice, read-out: GFR with the iohexol plasma clearance method
# Method: Male mice (C3H, n=8) anesthetized with isoflurane were injected i.v. in the tail vein with 100 μl iohexol (diluted 1:10 from stock solution). 15 minutes following the injection, the mice were re-anesthetized with isoflurane and were kept anesthetized until termination of the experiments. Blood samples (each 20 μl) were collected from the retro-orbital space at 15, 30, 45 and 60 minutes.
# Iohexol clearance was calculated by a bi-exponential method as: GFR=Dose/AUC, where AUC is the area under the plasma iohexol concentration curve. In addition, the slope of the second mono-exponential phase of the plasma disappearance curve for iohexol (k) was calculated using blood samples taken at 60, 90, 120, and 180 minutes.
# For measurement of iohexol, all blood samples were centrifuged at 2000 g for collection of plasma. Plasma samples (5 μl from rats and 1 μl from mice) were immediately diluted 7.5-60 times by 0.1% (v/v) trifluoroacetic acid (TFA) in water and their iohexol concentrations were measured by two-dimensional HPLC using the Thermo Scientific™ Dionex™ UltiMate™ […] Rapid Separation series hardware, column switching and Chromeleon Chromatography Data System software (7.2.10). […] Both columns were washed separately by 99.9% acetonitrile/0.1% TFA, re-equilibrated in 0.1% TFA in water and ready for the next sample 9 minutes after injection. […]
# Mouse PET-CT GFR = format: in vivo; settings: male C3H mice
# Method: All animals were scanned using the same scanner, anesthesia procedure, monitoring and positioning as mentioned above. First, CT semicircular scans (same settings as contrast CT) were acquired from the lower edge of the ribs to the pelvis for anatomical reference and attenuation correction for PET. Following CT, a 10-minute dynamic PET acquisition was initiated, which was started 30 seconds before the bolus injection (30 sec duration of the injection) of 5-10 MBq ^18F-cytochrome C diluted in 1 ml saline through a tail vein catheter. […]
# In more detail, 6 input function candidates were generated from 6 sphere-VOIs with diameters of 5, 6, 7, 8, 9, and 10 mm centered on the maximal signal intensity from the vessels and used for regression analyses to obtain an unbiased estimate of the area under the input function (AUC). […] An unbiased AUC was obtained from the regression analysis using a VOI-volume (x in regression equation) corresponding to a blood vessel diameter of 2.41 mm as measured by the ruler function with the software on the contrast CT images (n=8 images from 8 rats, SD=0.02). […] The auto segmentation tool was used to collect the ^18F-signals from both kidneys at 5.5 minutes using thresholds that gave VOI-volumes that matched the kidney volumes as measured by contrast CT. […]
# [2] = PET GFR scanning (kidney activity divided by AUC); format: in vivo, rats; settings: for GFR relative to the initial control value (PET-CT): CKD rats
# Method: (§1) All animals were scanned using the same scanner, anesthesia procedure, monitoring and positioning as mentioned above. First, CT semicircular scans (same settings as contrast CT) were acquired from the lower edge of the ribs to the pelvis for anatomical reference and attenuation correction for PET. Following CT, a 10-minute dynamic PET acquisition was initiated, which was started 30 seconds before the bolus injection (30 sec duration of the injection) of 5-10 MBq ^18F-cytochrome C diluted in 1 ml saline through a tail vein catheter. Images were reconstructed in 1-5 coincidence mode using the Tera-Tomo 3D reconstruction algorithm (Mediso) with 4 iterations/6 subsets, corrected for attenuation and scatter with a resulting 0.4 mm^3 voxel size. The PET acquisition was reconstructed to 15 timeframes: […]; 6×30 s; 3×120 s.
# SD male rats (n=8) were fed by 0.35% adenine in the chow (Altromin, Denmark) for 7 weeks to induce chronic kidney disease (CKD). PET-CT GFR scanning was performed at baseline and at 3, 5 and 7 weeks after initiation of adenine feeding. Iohexol clearance (described below) was performed at baseline and after 3, 5 and 7 weeks of adenine feeding. Blood samples were taken every second week for creatinine measurements.
# All images were analyzed using Inter View Fusion version 3.01.021.0000 (Mediso), and CT and PET images were automatically aligned. The sphere selection volume of interest (VOI) function was used to collect the signal from the large abdominal vessels close to the distal aorta branch level in the frame with the highest intensity and copied to all other frames to obtain the ^18F-cytochrome C intensity as a function of time (input function).
# In more detail, 6 input function candidates were generated from 6 sphere-VOIs with diameters of 5, 6, 7, 8, 9, and 10 mm centered on the maximal signal intensity from the vessels and used for regression analyses to obtain an unbiased estimate of the area under the input function (AUC). […] An unbiased AUC was obtained from the regression analysis using a VOI-volume (x in regression equation) corresponding to a blood vessel diameter of 2.41 mm as measured by the ruler function with the software on the contrast CT images (n=8 images from 8 rats, SD=0.02). This approach was verified by ex vivo blood and kidney samples in a separate set of rats (n=8), i.e. the ^18F-clearances obtained by ex vivo sampling were not different from those obtained by the PET images. The same approach was adopted for mice using sphere diameters of 1, 1.5, 2, 2.5, 3, 3.5, and 4 mm and abdominal vessel diameter of 0.9 mm (n=8 mice, SD=0.07). The auto segmentation tool was used to collect the ^18F-signals from both kidneys at 5.5 minutes using thresholds that gave VOI-volumes that matched the kidney volumes as measured by contrast CT. The total kidney ^18F-activity was calculated as the mean VOI-intensity multiplied with the kidney cortex volume (total kidney volume from CT×2/3) and divided by AUC to obtain GFR.
# [3] = design: species or system rats; settings: rat, in vivo
# Method: as §1
# To investigate the initial distribution, uptake and excretion of ^18F-cytochrome C in the body, two rats were dynamically scanned by PET-CT for 30 minutes. […] The ^18F signal peaked over the large abdominal vessels in less than 1 minute and appeared in the bladder in less than 10 minutes. After 10 minutes, the bladder signal increased exponentially and the kidney signal leveled out reflecting urinary excretion of ^18F-cytochrome C breakdown products.
# [4] = Stability and plasma protein binding of labelled proteins by SEC-HPLC; format: physicochemical; settings: high resolution size exclusion chromatography
# Method: The stability and plasma protein binding of stock solutions of ^18F-cytochrome C and ^124I-cystatin C was evaluated by high resolution size exclusion chromatography (SEC-HPLC) after 12 h storage in room temperature and after 8 days of storage in fridge (4° C.).
molecule,measurement,setting,value
CC(=O)N(CC(O)CO)c1c(I)c(C(=O)NCC(O)CO)c(I)c(C(=O)NCC(O)CO)c1I (stereo not shown) [Iohexol],GFR relative to the initial control value (iohexol),Iohexol plasma clearance; 3 weeks of adenine,−50%
same,GFR relative to the initial control value (iohexol),Iohexol plasma clearance; 7 weeks of adenine,−20%
same,GFR Iohexol/100 g,Iohexol plasma clearance; SD female rats (n = 6),0.73 ± 0.07 ml/min · 100 g
same,"k, plasma disappearance rate constant of iohexol for the second mono-exponential phase",Iohexol plasma clearance; SD female rats (n = 6),0.026 ± 0.002 min⁻¹
same,iohexol-based GFR,"Iohexol plasma clearance; SD females (n=6), FIG. 5D",2.3 ± 0.3 mL/min
same,GFR Iohexol/100 g,Iohexol plasma clearance; SD male rats (n = 8),0.59 ± 0.06 ml/min · 100 g
same,"k, plasma disappearance rate constant of iohexol for the second mono-exponential phase",Iohexol plasma clearance; SD male rats (n = 8),0.025 ± 0.002 min⁻¹
same,GFR Iohexol/100 g,Iohexol plasma clearance; Wistar male rats (n = 6),0.64 ± 0.01 ml/min · 100 g
same,"k, plasma disappearance rate constant of iohexol for the second mono-exponential phase",Iohexol plasma clearance; Wistar male rats (n = 6),0.027 ± 0.002 min⁻¹
same,clearance,"Iohexol plasma clearance; intravenous, SD male rats, baseline before 0.35% adenine (CKD model), read-out: Mean GFR estimated from iohexol clearance",2.89 ± 0.14 mL/min
same,clearance,"Iohexol plasma clearance; iv, SD female rats (n = 6), read-out: GFR Iohexol (iohexol clearance)",2.25 ± 0.26 mL/min
same,clearance,"Iohexol plasma clearance; iv, SD male rats (n = 8), read-out: GFR Iohexol (iohexol clearance)",2.89 ± 0.12 mL/min
same,clearance,"Iohexol plasma clearance; iv, Wistar male rats (n = 6), read-out: GFR Iohexol (iohexol clearance)",2.84 ± 0.34 mL/min
same,clearance,[1],0.51 ± 0.13 mL/min
"^18F-cytochrome C: Cytochrome C from bovine heart labelled with [^18F]F-Py-TFP, comprising a 6-[^18F]fluoropyridine-3-carboxy group",GFR measured with PET,Mouse PET-CT GFR,0.55 ± 0.12 mL/min
same,GFR relative to the initial control value (PET-CT),[2]; 3 weeks of adenine,−50%
same,GFR relative to the initial control value (PET-CT),[2]; 7 weeks of adenine,−20%
same,GFR (PET),[2]; SD female rats (n = 6),1.88 ± 0.16 mL/min
same,GFR/100 g (PET),[2]; SD female rats (n = 6),0.61 ± 0.06 ml/min · 100 g rat
same,PET-CT GFR,"[2]; SD females (n=6), FIG. 5D",2.3 ± 0.3 mL/min
same,GFR (PET),[2]; SD male rats (n = 8),3.20 ± 0.12 mL/min
same,GFR/100 g (PET),[2]; SD male rats (n = 8),0.66 ± 0.07 ml/min · 100 g rat
same,"Mean GFR, PET-CT value","[2]; SD male rats, baseline before 0.35% adenine (CKD model)",2.94 ± 0.12 mL/min
same,GFR (PET),[2]; Wistar male rats (n = 6),3.01 ± 0.35 mL/min
same,GFR/100 g (PET),[2]; Wistar male rats (n = 6),0.68 ± 0.11 ml/min · 100 g rat
same,Involvement of other organs such as liver and spleen,[3],negligible involvement of other organs
same,Time of ^18F signal appearance in the bladder,[3]; iv,less than 10 minutes
same,Time of ^18F signal peak over the large abdominal vessels,[3]; iv,less than 1 minute
same,Dimer formation / protein binding (size exclusion HPLC elution pattern),[4],no sign of dimer formation or protein binding
B1,Dimer formation / protein binding (size exclusion HPLC elution pattern),[4],appeared mainly as dimers
B2,Dimer formation / protein binding (size exclusion HPLC elution pattern),[4],appeared mainly as dimers
